# Test results reported in the supplement of paper PMC12042874.
# ± gives the uncertainty stated by the source.
# Assay: amyloid nucleation score (Sup35N fusion, yeast selection) (log enrichment); library NNK1; higher = more nucleation; inactive = no reads after selection
# In short: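 Libraries of peptides of 20 random codons fused to Sup35N were expressed in psi-negative yeast and induced 24 hours with 100 μM copper sulfate. Selection was 7 days at 30°C on medium lacking adenine and uracil, and plasmid inserts were Illumina-sequenced before and after selection. Nucleation score is the DiMSum log enrichment of output over input reads, centred on the mode score of non-aggregating sequences, and sequences with under 100 input reads were left out.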
row,Substance,amyloid nucleation score
1,TLSISTMIAAVGTLSVCGDM,0.768 ± 0.16
2,TLSKYQS,0.221 ± 0.53
3,TLTVRRCSCQVQWGLRMFHL,-0.653 ± 1.4
4,TLVKVRSELYSGRDAYELVS,0.035 ± 0.26
5,TMGVTIYGCWCDLNTSLVFG,-0.104 ± 0.24
6,TMICFVVGFFGIQDKVVKCD,0.135 ± 0.84
7,TMNNFVLKSAFLKSAFTTGV,-1.04 ± 2.1
8,TMSRQHKTGPNGSRAL,-0.073 ± 0.79
9,TMVCFVLDNCICKSLVTTCL,inactive
10,TNCDVVNSCTFGGNGDY,0.151 ± 1.1
11,TNFDGYLFRFHIWRGCLVT,0.188 ± 1
12,TNMMYVYFKVI,inactive
13,TNSFSVGCVRIP,0.657 ± 0.68
14,TNSFYYGSVSTCYSRCNCKF,7.362 ± 0.048
15,TNSTISYFARFVVIWLGKIA,-0.488 ± 0.86
16,TPCLKQLLLSSLILEGP,-0.6 ± 0.64
17,TPFGSVMVGYWQPIPLRDLG,0.634 ± 0.54
18,TPLYDIWDVSVDLPLPCIFS,inactive
19,TPVTRIILVVVIRVPSGSGY,-1.03 ± 0.8
20,TQHRRLVSRSQEFNVTQLKW,2.3 ± 0.27
21,TQLSMWSVRIKISYWVSGGV,0.804 ± 1.1
22,TQPMSF,inactive

row,Substance,amyloid nucleation score
1,TQRFFIVRMPSVCNNYYHLA,4.52 ± 0.067
2,TQSGVIQDAACPAMGMSNVL,0.289 ± 0.66
3,TQSRPLETGCPQLERSGLLA,-0.692 ± 0.81
4,TRCCGFKRGGFVSYWMGSRP,1.01 ± 0.51
5,TRCINVYHPLCI,-0.875 ± 0.36
6,TRCKTGSLRLNYVDISQPHV,0.683 ± 0.8
7,TRFLGYWADLSICMPSYGCR,-0.209 ± 1
8,TRKWEYTSKVRVQRGSVYLL,0.13 ± 0.65
9,TRNLMPSRSFG,2.08 ± 0.28
10,TRPLQYIQ,-0.045 ± 1.1
11,TRQYIEVSVNLCYIVVDKKN,-0.203 ± 0.39
12,TRWQITDPYSPCTWSCSWTQ,0.906 ± 1
13,TSCFCI,-0.133 ± 0.33
14,TSFCGLVAPQLCKFSMRSLE,-0.504 ± 0.47
15,TSFCIETSGSILIELYGCWA,-0.356 ± 0.5
16,TSHSCHIVGAFMKKCWFSST,-0.057 ± 0.65
17,TSKERSLCSKDVT,0.393 ± 0.55
18,TSLYNCRVRRLYFWWLRIML,1.14 ± 0.7
19,TSNHML,0.226 ± 0.61
20,TSNLHTHGSVFDFWG,0.732 ± 0.55
21,TSQVSGRHVVSIDWTIWLSL,0.616 ± 0.66
22,TSRFPKASKSRLTRDCP,0.323 ± 0.35

row,Substance,amyloid nucleation score
1,TSTARISQPDNRVGLNF,-0.032 ± 0.44
2,TSTLVMTNKMVLDSVE,-0.543 ± 0.25
3,TSVTSVMWPYSPNGYLAVFR,-0.062 ± 1.2
4,TSYGISLPAHP,0.541 ± 0.75
5,TTALDFRMDAMEVFRRFDEA,0.14 ± 0.39
6,TTFTRVTLICSPPVQAKLGR,0.399 ± 0.27
7,TTGKFDLFGDYHRGSLYSSV,-0.768 ± 0.49
8,TTGSGSRSNWWYGSPNYYLS,-0.867 ± 0.53
9,TTIAIRVLFQIVMVVSESRS,-0.247 ± 0.24
10,TTIQGRPVNVAAFRTTLLTR,-1.11 ± 2.7
11,TTIYRY,0.234 ± 0.9
12,TTLPREYYHRRVSVG,0.373 ± 0.43
13,TTLVLTADLAVNPRRWWTMI,0.373 ± 0.43
14,TTSWDYFGAKEIIRFVMVTC,-2.12 ± 2.7
15,TVDGTECCWVDTRNNSRMVK,-0.941 ± 0.78
16,TVFGVL,0.705 ± 0.77
17,TVHFSDWMIPNTRLEATCGM,0.158 ± 0.31
18,TVHTLSIFFSGRAFAANPFS,2.36 ± 0.16
19,TVIFMCLTAFGTSGNHIGSR,-0.776 ± 0.81
20,TVIIWDENIWYFGAYAW,-1.53 ± 0.83
21,TVKSWKFNRFIGLKRSTESL,0.238 ± 0.42
22,TVLDFCFWYAGVVFKYARFV,-0.932 ± 0.39

row,Substance,amyloid nucleation score
1,TVMANKY,-0.16 ± 0.32
2,TVNARVGVSIFYYWV,0.345 ± 0.93
3,TVNCGQSSMWDFWTGLTECG,-0.22 ± 0.75
4,TVRQTGRVPMTGLIMFW,1.95 ± 0.19
5,TVSSLSWDGMPLLPVTLIFS,-1.01 ± 1.2
6,TVTLGVPRQCAGTCRMVSLN,inactive
7,TVVHPFSYA,0.487 ± 0.49
8,TVWKSLLHNSAAAGV,0.109 ± 1.6
9,TWCIAVVSEILLLHI,inactive
10,TWDFSFDQGIKY,-0.125 ± 0.32
11,TWIVEELFIGDRLALREGFR,0.406 ± 0.63
12,TWKAIWSEWYRTVPTGVLSN,0.461 ± 0.42
13,TWLYEIHTILMIGGIMRKRG,0.734 ± 0.45
14,TWNAFRRLWVTSDGYTRVLT,1.23 ± 0.41
15,TWQFCDVRL,-0.064 ± 0.39
16,TWQLNIYMEKFSGVEKSSTV,7.841 ± 0.053
17,TWSRNIINFRIFWYTLFQVH,0.005 ± 0.29
18,TYCKASGVR,0.371 ± 0.75
19,TYCMYDYRKAVGEGWQFR,0.124 ± 0.38
20,TYCNMVITRQRNA,0.685 ± 0.38
21,TYHFIYEWISLTIT,inactive
